Data as given in paper PMC7803741.
Where two headings read alike, the source gives them in different places.

Experiments:
[1] = biological target: clathrin adaptor protein AP2 (AP2 μ1 subunit as printed) (UniProt P84092); experiment: ITC; conditions: reference: unphosphorylated synthetic γ2-GIM peptide; sites Y405
[2] = biological target: GABARAP (UniProt Q9DCD6); experiment: ITC; conditions: reference: unphosphorylated synthetic γ2-GIM peptide; sites Y405
[3] = biological target: GABAA receptor-associated protein (GABARAP) (mouse) (UniProt Q9DCD6); experiment: ITC; VP-ITC at 25 °C; 50 mM Tris pH 7.8, 100 mM NaCl, 1 mM EDTA, 1 mM DTT; γ2 subunit protein or peptide (100-200 μM) injected into GABARAP, GABARAPL1 or AP2 (10-20 μM) in the cell; one-site binding model
Sequence of GABAA receptor-associated protein (GABARAP) (mouse) (Q9DCD6 whole entry): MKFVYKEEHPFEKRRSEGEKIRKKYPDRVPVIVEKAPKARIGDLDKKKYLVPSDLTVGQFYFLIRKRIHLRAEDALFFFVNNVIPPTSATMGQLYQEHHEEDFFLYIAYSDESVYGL

[4] = biological target: clathrin adaptor protein AP2 (AP2 μ1 subunit as printed) (rat) (UniProt P84092); experiment: ITC; VP-ITC, 25 °C; 50 mM Tris pH 7.8, 100 mM NaCl, 1 mM EDTA, 1 mM DTT; γ2 subunit protein or peptide (100–200 μM) injected into GABARAP, GABARAPL1 or AP2 (10–20 μM) in the cell; one-site binding model
Sequence of clathrin adaptor protein AP2 (AP2 μ1 subunit as printed) (rat) (P84092 whole entry): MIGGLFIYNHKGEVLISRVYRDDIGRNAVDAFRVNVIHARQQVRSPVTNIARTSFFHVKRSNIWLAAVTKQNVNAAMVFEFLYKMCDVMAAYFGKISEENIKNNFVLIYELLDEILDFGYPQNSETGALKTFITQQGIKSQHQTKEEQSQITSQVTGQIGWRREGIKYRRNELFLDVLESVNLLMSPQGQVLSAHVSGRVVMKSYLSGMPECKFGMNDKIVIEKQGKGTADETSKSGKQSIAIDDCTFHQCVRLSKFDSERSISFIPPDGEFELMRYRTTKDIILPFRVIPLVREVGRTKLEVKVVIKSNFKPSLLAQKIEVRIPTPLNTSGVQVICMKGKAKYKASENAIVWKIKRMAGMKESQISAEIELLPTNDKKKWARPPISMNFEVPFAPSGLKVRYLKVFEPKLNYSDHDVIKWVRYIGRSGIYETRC

[5] = biological target: GABAAR-associated protein (GABARAP) (mouse) (UniProt Q9DCD6); experiment: as above
Sequence of GABAAR-associated protein (GABARAP) (mouse) (Q9DCD6 whole entry): as the sequence (Q9DCD6 whole entry) above

[6] = biological target: GABAAR-associated protein (GABARAP) (mouse) (UniProt Q9DCD6); experiment: as above; remark: listed apart in the source

Sequence of clathrin adaptor protein AP2 (AP2 μ1 subunit as printed) (P84092 whole entry, looked up, tested part not stated): as the sequence (P84092 whole entry) above
Sequence of GABARAP (Q9DCD6 whole entry, looked up): as the sequence (Q9DCD6 whole entry) above

Q: What does the source list for “GABAA receptor γ2 subunit (γ2-GABAAR; γ2-GIM = residues 398–415) γ2-GIM, 398-415 (from UniProt P22723-2) pY405 peptide”?
A: binding against the reference [1]: lost; binding against the reference [2]: lost

Q: “GABAA receptor γ2 subunit GIM (GABARAP interacting motif, 398-415) (peptide)” was tested. Which stoichiometry N [3] did it give?
A: 1.06

Q: With “GABAAR γ2 subunit GIM (GABARAP interacting motif, 398–415) (from UniProt P22723-2 398-415) (peptide)” as the substance, how does the Kd [4] read?
A: 0.25 µM

Q: And the Kd [5]?
A: 4.2 µM

Q: What about the Kd [6] of the same substance?
A: 4.9 µM

Q: “recombinant of the TM3–TM4 ICD lacking the 424–441 octadecapeptide (from UniProt P22723-2 375-442) (domain or fragment)” was tested. Which Kd [5] did it give?
A: 5.1 µM

Q: Which results are given for “synthesized γ2-GIM WT peptide (from UniProt P22723-2 398-415)”?
A: Kd [4]: 0.45 µM; Kd [5]: 3.6 µM

Q: “synthetic pY403 γ2-GIM (from UniProt P22723-2 398-415) (peptide)” was tested. Which Kd [4] did it give?
A: 5.2 µM

Q: What about the Kd [5] of the same substance?
A: 0.82 µM
